Assay results reported in patent publication US20040121956A1 (PHARMACIA AND UPJOHN, published 2004).
Where no end group is shown, it is not given here.

T1: DmGPCR1 (PnuFlyPep34651) (Drosophila melanogaster)
T1 chain: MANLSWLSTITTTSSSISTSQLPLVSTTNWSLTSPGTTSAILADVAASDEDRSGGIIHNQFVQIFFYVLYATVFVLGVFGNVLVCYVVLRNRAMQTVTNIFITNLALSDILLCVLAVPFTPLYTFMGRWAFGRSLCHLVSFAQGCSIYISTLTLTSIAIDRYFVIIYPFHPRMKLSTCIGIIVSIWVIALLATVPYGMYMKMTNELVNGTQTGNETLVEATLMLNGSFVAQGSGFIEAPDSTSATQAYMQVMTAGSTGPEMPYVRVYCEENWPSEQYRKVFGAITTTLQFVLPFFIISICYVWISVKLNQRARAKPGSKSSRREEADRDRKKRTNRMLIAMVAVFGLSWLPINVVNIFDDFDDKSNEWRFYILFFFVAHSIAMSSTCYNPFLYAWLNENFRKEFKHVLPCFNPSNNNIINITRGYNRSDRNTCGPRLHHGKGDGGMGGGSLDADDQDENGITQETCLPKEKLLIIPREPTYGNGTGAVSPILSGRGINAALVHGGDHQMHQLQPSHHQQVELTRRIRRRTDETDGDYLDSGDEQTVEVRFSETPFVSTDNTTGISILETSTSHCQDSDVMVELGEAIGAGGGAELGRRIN

T2: DmGPCR6a (M811490) (Drosophila melanogaster, UniProt P25931 1-464)
T2 sequence (looked up): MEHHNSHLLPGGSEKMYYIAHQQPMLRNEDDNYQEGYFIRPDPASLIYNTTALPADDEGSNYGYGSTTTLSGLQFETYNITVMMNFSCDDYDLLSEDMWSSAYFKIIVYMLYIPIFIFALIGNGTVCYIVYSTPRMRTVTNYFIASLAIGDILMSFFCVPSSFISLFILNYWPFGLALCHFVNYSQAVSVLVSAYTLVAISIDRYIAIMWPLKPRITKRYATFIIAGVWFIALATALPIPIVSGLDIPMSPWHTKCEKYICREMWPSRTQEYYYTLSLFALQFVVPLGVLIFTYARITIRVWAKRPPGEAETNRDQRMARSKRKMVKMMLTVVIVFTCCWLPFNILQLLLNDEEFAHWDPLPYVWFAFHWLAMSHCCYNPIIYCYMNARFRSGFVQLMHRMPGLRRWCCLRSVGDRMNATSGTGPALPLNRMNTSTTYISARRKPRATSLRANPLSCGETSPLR


What was measured:
DmGPCR1 (PnuFlyPep34651) = target: T1, DmGPCR1 (PnuFlyPep34651); test: cell-based or functional assay
DmGPCR6a (M811490) = target: T2, DmGPCR6a (M811490); test: cell-based or functional assay

Binder | EC50, FLIPR assay (DmGPCR1 (PnuFlyPep34651)) [µM] | GTPγS binding, fold increase, 5 µM NPFF (DmGPCR6a (M811490)) [fold]
ARGPQLRLRF-NH2 [ARGPQLRLRF-NH2] | 0.1 to 0.2 | –
FLFQPQRF-NH2 [human NPFF (FLFQPQRF-NH2)] | – | 4
